B1: SEQ ID. NO. 6: GRP94 CDB-CT domain, 148 aa, recombinant ~20 kDa protein purified from E. coli (protein)
chain: YGWSGNMERIMKAQAYQTGKDISTNYYASQKKTFEINPRHPLIRDMLRRIKEDEDDKTVLDLAVVLFETATLRSGYLLPDTKAYGDRIERMLRLSLNIDPDAKVEEEPEEEPEETAEDTTEDTEQDEDEEMDVGTDEEEETAKESTAE

Key:
[1] = system: PCSK9-induced LDLR degradation; assay: PCSK9-induced LDLR degradation in HepG2 cells, extracellular addition, immunoblot; assay type: cell-based, human
Description: (§1) FIG. 5: SEQ ID NO. 67 blocks PCSK9 internalization and LDLR degradation. Recombinant SEQ ID NO. 67 was added to conditioned media obtained from HEK293 transfected with PCSK9-mCherry or in DMEM together with recombinant human PCSK9, rotated 4 h at 4° C. and added overnight on HepG2 cells as indicated. (a) Following 24 h post-transfection with LDLR-EGFP cDNA (SEQ. ID. NO. 69), HepG2 cells were incubated with PCSK9-mCherry without (−) or with 10 nM SEQ ID NO. 67. Fluorescent proteins were visualized in fixed cells by confocal microscopy. (b) Cells were incubated without or with 25 nM PCSK9 alone or with 0, 10, 25 or 100 nM SEQ ID NO. 67. Total LDLR, SEQ ID NO. 67, PCSK9 and β-actin protein levels were analyzed by immunoblotting in cell lysates and conditioned media as indicated. Data are representative of at least three independent experiments.
FIG. 7: SEQ ID NO. 6 prevents PCSK9-induced LDLR degradation. (a) Left; Coomassie staining of purified recombinant SEQ ID NO. 6 and PCSK9 separated by SDS-PAGE is shown. Right; HepG2 cells were incubated in DMEM without or with 0, 25, 100 or 250 nM SEQ ID NO. 6 alone or in presence of recombinant PCSK9. (b) HepG2 cells were transfected without (−) or with PCSK9-V5 in absence (−) or presence SEQ ID NO. 66 or SEQ ID NO. 46. Total LDLR, PCSK9, SEQ ID NO. 66, SEQ ID NO. 46 and β-actin protein levels were analyzed by immunoblotting in cell lysates and conditioned media as indicated. Data are representative of at least three independent experiments.
For Western blot analyses, SDS-polyacrylamide gels were blotted on nitrocellulose membranes (Cat. #162-0115, Bio-Rad), and blocked for 1 h in Tris-Buffered Saline-Tween 20 (TBS-T; 50 mM Tris-HCl, pH 7.5, 150 mM NaCl, 0.1% Tween 20) containing 5% non-fat dry milk. Membranes were then incubated overnight in TBS-T supplemented with 1% non-fat milk and indicated antibodies: rabbit anti-PCSK9 (1:2500, custom made, GenScript), goat anti-human or anti-mouse LDLR (1:1000; Cat. #AF2148 or #A2255, R&D Systems), rat anti-Grp94 (1:30,000), rabbit anti-GRP78 (1:2500; Cat. #ab21685, Abcam), rabbit anti-GFP (1:2000; Cat. #A11122, Life Sciences), mouse anti-V5-tag (1:5000; Cat. #A00641, GenScript), mouse anti-HA-tag (1:5000), rabbit anti-β-actin (1:5000; Cat. #A2066, Sigma-Aldrich). Appropriate HRP-conjugated secondary antibodies (1:10,000, GE healthcare) were used for detection using the Western Lightning Ultra chemiluminescence kit (Cat. #NE1112001EA, PerkinElmer) and BioFlex EC Films (Cat. #CLEC810, InterScience).
To validate this hypothesis, we therefore first tested the effect of extracellular SEQ ID. NO. […]
We next tested whether SEQ ID. […] (Poirier et al., 2009) As PCSK9 was also shown to induce LDLR degradation via an intracellular pathway, (Poirier et al., 2009) we evaluated to ability of SEQ ID. […]

[2] = system: PCSK9-mCherry internalization; assay: PCSK9-mCherry internalization in LDLR-EGFP transfected HepG2 cells, confocal microscopy; assay type: cell-based, human; settings: 10 nM recombinant protein, HepG2, overnight, versus control
Description: as §1
Huh-7 cells were washed three times with PBS, fixed with Bouin's solution (0.9% picric acid, 9% paraformaldehyde, 5% acetic acid/PBS) for 15 min. Following extensive PBS washes, cells were permeabilized with 0.1% Triton X-100/PBS for 10 min and incubated with 150 mM glycine to stabilize the aldehydes. […]

PCSK9 binding to LDLR = target: T1, PCSK9 binding to LDLR (Homo sapiens, UniProt Q8NBP7); assay: In vitro PCSK9-LDLR competitive pull-down (immunoprecipitation with mAb-V5); settings: 1 μg PCSK9, 1 μg LDLR, preincubation 4 h
T1 construct: made in house; host or cells: HEK293T
Description: FIG. 6: SEQ ID NO. 6 reduces PCSK9 binding to LDLR in vitro. Left; Coomassie staining of His6 tag purified recombinant SEQ ID NO. 6 and PCSK9 produced as described in Material and Methods. Right; PCSK9-V5-His6 (1 μg) was incubated without (−) or with (+) recombinant SEQ ID NO. 6 (2 μg) in 500 μl of immune-precipitation (IP) buffer (PBS, 1 mM CaCl2, 1% Tween-20 and protease inhibitors) for 4 h at 4° C. on a rotator. Following incubation, 1 μg of recombinant human LDLR ectodomain was added together with 50 μl of A/G-agarose beads and 1 μg of mAb-V5 antibody and incubated with rotation overnight. Samples were then centrifuged at 3,000×g for 5 min and pellets washed three times with 1 ml IP buffer and rotated for 10 min 4° C. and resuspended in 2× Laemmli loading buffer. Samples were separated by SDS-PAGE and immune-blotted as indicated. Data are representative of two independent experiments.
NO. […] NO. 3 might be due to direct competition for PCSK9 binding to the LDLR. To test this hypothesis, we subcloned the SEQ ID. NO. 6 into the pET-24 bacterial expressing vector of which recombinant protein were retrieved from E. coli and purified by metal affinity and size exclusion chromatography. The homogeneity of purified SEQ ID. NO. 6(^˜20 kDa) and recombinant PCSK9 purified from conditioned media of HEK293 transfected cells were assessed by SDS-PAGE and coomassie staining (FIG. 6; left panels). […]

T1 sequence (Q8NBP7 153-692): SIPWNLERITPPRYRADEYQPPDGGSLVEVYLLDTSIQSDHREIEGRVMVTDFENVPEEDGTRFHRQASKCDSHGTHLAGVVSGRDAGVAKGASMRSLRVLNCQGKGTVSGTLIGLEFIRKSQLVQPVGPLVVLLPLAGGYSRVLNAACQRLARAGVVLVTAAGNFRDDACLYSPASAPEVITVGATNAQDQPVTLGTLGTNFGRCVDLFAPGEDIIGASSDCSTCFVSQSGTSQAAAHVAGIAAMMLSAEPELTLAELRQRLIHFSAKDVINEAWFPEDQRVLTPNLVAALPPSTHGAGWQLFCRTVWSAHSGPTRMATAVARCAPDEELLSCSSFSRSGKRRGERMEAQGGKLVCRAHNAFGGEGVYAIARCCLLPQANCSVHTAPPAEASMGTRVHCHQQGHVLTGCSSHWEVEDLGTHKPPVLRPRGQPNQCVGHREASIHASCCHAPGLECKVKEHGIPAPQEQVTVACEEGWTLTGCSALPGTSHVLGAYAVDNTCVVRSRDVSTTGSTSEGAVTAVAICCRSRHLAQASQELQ
T1 sequence (Q8NBP7 31-152 partner limits assumed): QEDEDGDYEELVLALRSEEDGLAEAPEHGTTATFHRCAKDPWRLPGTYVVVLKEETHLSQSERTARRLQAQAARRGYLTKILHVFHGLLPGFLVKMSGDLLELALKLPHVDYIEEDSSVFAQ

Row | Molecule | Effect on PCSK9-induced LDLR degradation ([1]; HepG2, overnight, 25 nM PCSK9, 0, 10, 25 or 100 nM protein) | PCSK9-mCherry internalization in LDLR-EGFP expressing cells [2] | Block of exogenously added PCSK9 ([1]; 250 nM, HepG2, exogenous PCSK9 ~6-fold endogenous levels) | Concentration at which maximum effect on total LDLR protein levels was saturated ([1]; HepG2, overnight) [nM] | Total LDLR protein levels ([1]; HepG2, overnight, extracellular addition, endogenously secreted PCSK9) | LDLR pull-down with PCSK9 (PCSK9 binding to LDLR)
1 | SEQ ID. NO. 67: full-length recombinant GRP94 obtained from Enzo Life Sciences (Cat. #ADI-SPP-766) | reverted in a dose-dependent manner | significantly reduced | – | – | – | –
2 | B1 | – | – | not sufficient | ≤ 25 | significantly increases | partially inhibited

Reference: patent US11529390B2, “PCSK9 inhibitory polypolypeptides and methods of use” (INSTITUT DE CARDIOLOGIE DE MONTREAL, priority 2015, dated 2022)
